In paper PMC2830194:

What was measured:
[1] = biological target: FlhA (Cpn0363), putative flagellar integral membrane protein, full length, bacterial-2-hybrid fusion (C. pneumoniae); experiment: two-hybrid; bacterial-2-hybrid in E. coli DHP-1, proteins fused to adenylate cyclase fragments from pT18 and pT25; β-galactosidase activity, in triplicate; cut off for a positive interaction 577 units (table footnote; 677 in the methods)
[2] = biological target: CopN, putative T3S plug protein, bacterial-2-hybrid fusion (C. pneumoniae); experiment: two-hybrid
[3] = biological target: CdsL, putative T3S ATPase tethering protein, bacterial-2-hybrid fusion (C. pneumoniae); experiment: two-hybrid; bacterial-2-hybrid in E. coli DHP-1, proteins fused to adenylate cyclase fragments from pT18 and pT25; β-galactosidase activity, in triplicate; cut off for a positive interaction 577 units (table footnote; 677 in the methods)
[4] = biological target: Full length His-Cpn0859 (C. pneumoniae); experiment: cross-linking
[5] = biological target: CdsD-FHA-2, bacterial-2-hybrid fusion (positive control) (C. pneumoniae); experiment: two-hybrid; bacterial-2-hybrid in E. coli DHP-1, proteins fused to adenylate cyclase fragments from pT18 and pT25; β-galactosidase activity, in triplicate; cut off for a positive interaction 577 units (table footnote; 677 in the methods)

Substance | β-galactosidase activity (units/mg bacteria) [1] | further results
CdsL, putative T3S ATPase tethering protein, bacterial-2-hybrid fusion (natural protein) | 832 | –
Cpn0322 (putative CdsU, YscU ortholog), bacterial-2-hybrid fusion (natural protein) | 780 | –
FliF (Cpn0860), putative flagellar MS ring protein, full length, bacterial-2-hybrid fusion (natural protein) | 847 | –
FliI (Cpn0858), putative flagellar ATPase, bacterial-2-hybrid fusion (enzyme) | 943 | β-galactosidase activity (units/mg bacteria) [2]: 943; β-galactosidase activity (units/mg bacteria) [3]: 874
Full length His-Cpn0859 (natural protein) | – | stoichiometry N [4]: 2
PknD, bacterial-2-hybrid fusion (positive control) (natural protein) | – | β-galactosidase activity (units/mg bacteria) [5]: 996
